From paper PMC10786891, “Massively parallel profiling of RNA-targeting CRISPR-Cas13d”
Numbering of substitutions follows the chain as printed. In names and notes the source's numbering stands.

Target: T1, EsCas13d, nuclease-dead (Eubacterium siraeum, UniProt B0MS50, R295A;H300A;R849A;H854A)
T1 sequence: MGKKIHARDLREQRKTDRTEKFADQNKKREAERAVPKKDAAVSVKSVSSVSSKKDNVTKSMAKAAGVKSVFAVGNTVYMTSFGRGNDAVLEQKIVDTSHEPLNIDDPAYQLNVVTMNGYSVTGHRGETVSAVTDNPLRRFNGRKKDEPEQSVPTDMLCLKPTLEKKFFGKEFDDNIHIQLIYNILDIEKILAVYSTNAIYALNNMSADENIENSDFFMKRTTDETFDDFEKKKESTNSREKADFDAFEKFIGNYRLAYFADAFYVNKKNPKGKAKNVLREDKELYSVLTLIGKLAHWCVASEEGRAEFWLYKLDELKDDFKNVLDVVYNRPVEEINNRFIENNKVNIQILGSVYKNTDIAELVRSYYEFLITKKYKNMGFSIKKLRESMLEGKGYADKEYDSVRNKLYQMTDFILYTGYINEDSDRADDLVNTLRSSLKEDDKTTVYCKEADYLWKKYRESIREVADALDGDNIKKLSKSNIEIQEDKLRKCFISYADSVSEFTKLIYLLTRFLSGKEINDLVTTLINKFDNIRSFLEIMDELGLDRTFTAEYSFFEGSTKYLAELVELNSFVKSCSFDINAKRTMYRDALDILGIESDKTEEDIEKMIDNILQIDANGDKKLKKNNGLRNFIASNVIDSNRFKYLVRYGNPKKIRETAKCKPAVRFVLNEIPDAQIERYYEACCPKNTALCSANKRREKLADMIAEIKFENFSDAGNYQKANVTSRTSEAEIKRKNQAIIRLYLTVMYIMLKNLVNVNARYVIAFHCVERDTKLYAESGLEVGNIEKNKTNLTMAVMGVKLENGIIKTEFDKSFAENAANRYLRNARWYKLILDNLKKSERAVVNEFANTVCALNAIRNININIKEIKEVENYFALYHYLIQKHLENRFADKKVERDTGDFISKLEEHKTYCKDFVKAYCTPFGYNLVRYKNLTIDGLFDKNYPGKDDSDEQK
Assay: crRNA (strand 1, pre-loaded); Mg2+; 40 mM Tris-HCl pH 7.5, 150 mM NaCl, 6 mM MgCl2, 1 mM DTT, 0.1% Tween-20, 0.2 mg/ml BSA; 25 C; 10 min per concentration, then washed
Details: tags: His6-TwinStrep-SUMO cleaved; N-terminal SNAP kept (SNAP-Surface 488); label: 3' end held by stalled T7 RNA polymerase

B1: target 3 A11C,U15C (mixed)
RNA 1: CACCCGUGCAAAAUUGCAGGGGUCUAAAACGACCUGAAUAUUUCAGAUCAAA
RNA 2: GGGAAUGGAUCCACAUCUACGAAUUCGUUUUUGAUCCGAACUAUUCAGGUCUGCAGAUCGGAAGAGCACACGU
- Kd: 50 ± 9 nM

B2: target 3 U7C,U8A (mixed)
RNA 1: B1 RNA 1
RNA 2: B1 RNA 2 with C37U, C41A, U44A, U45C
- Kd: 114 ± 28 nM

B3: target 3 complement block 13-15 (mixed)
RNA 1: B1 RNA 1
RNA 2: B1 RNA 2 with C37A, G38C, A39U, C41A
- Kd: 67.8 ± 31.8 nM

B4: target 3 insG 3' of 5,insA 3' of 4 (mixed)
RNA 1: B1 RNA 1
RNA 2: GGGAAUGGAUCCACAUCUACGAAUUCGUUUUUGAUCUGAAAUAUUCAGGAGUCUGCAGAUCGGAAGAGCACACGU
- Kd: 9.2 ± 1.05 nM

B5: target 3 A12G,A18G (mixed)
RNA 1: B1 RNA 1
RNA 2: B1 RNA 2 with A34G, C37U, A40G, C41A
- Kd: 62 ± 13 nM

B6: target 3 del2,del19 (mixed)
RNA 1: B1 RNA 1
RNA 2: GGGAAUGGAUCCACAUCUACGAAUUCGUUUUUAUCUGAAAUAUUCAGGCUGCAGAUCGGAAGAGCACACGU
- Kd: 98.5 ± 25 nM

B7: target 3 insU 3' of 22,insU 3' of 19 (mixed)
RNA 1: B1 RNA 1
RNA 2: GGGAAUGGAUCCACAUCUACGAAUUCGUUUUUUGUAUCUGAAAUAUUCAGGUCUGCAGAUCGGAAGAGCACACGU
- Kd: 54 ± 14.5 nM

B8: target 3 insA 3' of 21,insC 3' of 5 (mixed)
RNA 1: B1 RNA 1
RNA 2: GGGAAUGGAUCCACAUCUACGAAUUCGUUUUAUGAUCUGAAAUAUUCACGGUCUGCAGAUCGGAAGAGCACACGU
- Kd: 69.5 ± 11.5 nM

B9: target 3 C6A,U7A (mixed)
RNA 1: B1 RNA 1
RNA 2: B1 RNA 2 with C37U, C41A, U45A, C46A
- Kd: 46.5 ± 5 nM

B10: target 3 U7A,U8A (mixed)
RNA 1: B1 RNA 1
RNA 2: B1 RNA 2 with C37U, C41A, U44A, U45A
- Kd: 83 ± 15.5 nM

B11: target 3 insC 3' of 9,insG 3' of 2 (mixed)
RNA 1: B1 RNA 1
RNA 2: B4 RNA 2 with U44C, C46U, A47C, G48A, A50G, G51U, U52G
- Kd: 81.5 ± 19 nM

B12: target 3 U8A,A11C (mixed)
RNA 1: B1 RNA 1
RNA 2: B1 RNA 2 with C37U, U44A
- Kd: 42 ± 7 nM

B13: target 3 U2A,A13U (mixed)
RNA 1: B1 RNA 1
RNA 2: B1 RNA 2 with C37U, A39U, C41A, U50A
- Kd: ~91.5 nM

B14: target 3 U2A,G3C (mixed)
RNA 1: B1 RNA 1
RNA 2: B1 RNA 2 with C37U, C41A, G49C, U50A
- Kd: 23.2 ± 2 nM

B15: target 3 complement block 1-3 (mixed)
RNA 1: B1 RNA 1
RNA 2: B1 RNA 2 with C37U, C41A, G49C, U50A, C51G
- Kd: 23.1 ± 3.9 nM

B16: target 3 insG 3' of 9,insA 3' of 4 (mixed)
RNA 1: B1 RNA 1
RNA 2: B4 RNA 2 with U44G, C46U, A47C, G48A
- Kd: 60 ± 26.5 nM

B17: target 3 insU 3' of 22 (mixed)
RNA 1: B1 RNA 1
RNA 2: GGGAAUGGAUCCACAUCUACGAAUUCGUUUUUUGAUCUGAAAUAUUCAGGUCUGCAGAUCGGAAGAGCACACGU
- Kd: 17.4 ± 1.8 nM

B18: target 3 G4U,U8A (mixed)
RNA 1: B1 RNA 1
RNA 2: B1 RNA 2 with C37U, C41A, U44A, G48U
- Kd: 30.2 ± 3.9 nM

B19: target 3 insA 3' of 21,insA 3' of 21 (mixed)
RNA 1: B1 RNA 1
RNA 2: B7 RNA 2 with U32A, U33A, G34U, U35G
- Kd: 29.8 ± 4.05 nM

B20: target 3 U2G,A12U (mixed)
RNA 1: B1 RNA 1
RNA 2: B1 RNA 2 with C37U, A40U, C41A, U50G
- Kd: 46.5 ± 6.5 nM

B21: target 3 insU 3' of 6,insU 3' of 5 (mixed)
RNA 1: B1 RNA 1
RNA 2: B4 RNA 2 with A47U, G48A, G49U, A50G
- Kd: 7.93 ± 0.61 nM

B22: target 3 C1U,U22G (mixed)
RNA 1: B1 RNA 1
RNA 2: B1 RNA 2 with U30G, C37U, C41A, C51U
- Kd: 77.5 ± 21 nM

B23: target 3 G3A,U8G (mixed)
RNA 1: B1 RNA 1
RNA 2: B1 RNA 2 with C37U, C41A, U44G, G49A
- Kd: 108 ± 33.5 nM

B24: target 3 insA 3' of 8,insA 3' of 2 (mixed)
RNA 1: B1 RNA 1
RNA 2: B4 RNA 2 with U45A, C46U, A47C, G48A, A50G, G51U, U52A
- Kd: 59.5 ± 18.5 nM

B25: target 3 U2C,A11C (mixed)
RNA 1: B1 RNA 1
RNA 2: B1 RNA 2 with C37U, U50C
- Kd: 54.5 ± 7.7 nM

B26: target 3 insA 3' of 7,insG 3' of 5 (mixed)
RNA 1: B1 RNA 1
RNA 2: B4 RNA 2 with C46A, A47C, G48A, A50G
- Kd: 42 ± 6.5 nM

B27: target 3 insG 3' of 1,insG 3' of 1 (mixed)
RNA 1: B1 RNA 1
RNA 2: B4 RNA 2 with A50U, G51C, U52G, C53G
- Kd: 85 ± 31.5 nM

B28: target 1 U8C,C22A (mixed)
RNA 1: CACCCGUGCAAAAAUGCAGGGGUCUAAAACUGAGCGGAUAACCUCUCUAUGG
RNA 2: GGGAAUGGAUCCACAUCUACGAAUUCGUAACAUAGAGAGGUUACCCGCUCACCGAGAUCGGAAGAGCACACGU
- Kd: 21.9 ± 2.2 nM

B29: target 1 insA 3' of 5,insG 3' of 1 (mixed)
RNA 1: B28 RNA 1
RNA 2: GGGAAUGGAUCCACAUCUACGAAUUCGUACCAUAGAGAGGUUAUCCGACUCAGCCGAGAUCGGAAGAGCACACGU
- Kd: 5.4 ± 0.4 nM
